Results on eight molecules are retold here after patent US8592178B2, “Process for the preparation of testosterone” (F.I.S. Fabbrica Italiana Sintetici S.p.A., priority 2009, dated 2013).

Values after ≈ are worked out from the molar mass of the structure shown. Values joined by “and” are separate entries in the source; they are usually repeats but may differ in a detail not shown here. Equal entries are not always repeated.

Data set [1] in a line: Solubility of 4-androstene-3,17-dione (saturated solution). Type of data set: physicochemical. The protocol:
• 5 mg of 4-androstene-3,17-dione in • 5 mL of buffer solution (phosphate buffer 50 mM; pH 6.5). This was stirred at 40° C. for 15 minutes and the suspended matter was filtered thereby obtaining a saturated solution of 4-androstene-3,17-dione (conc. 50 μg/mL). Solution I (NAD Solution) • 10 mg of NAD in • 1 mL of buffer solution. A clear solution was obtained. Solution L ([…]) • 13 mg of GDH-103 (glucose dehydrogenase) in • 1 mL of buffer solution. A clear solution was obtained.
Advantageously, the enzyme of the present invention is capable of carrying out the catalysis also in water-organic solvent mixtures, such as methanol, ethanol, isopropanol in percentages as high as 50%. This mixtures allow increasing the substrate solubility, which is as low as about 50 μg/mL in water.

Data set [2] in a line: Stability study of the enzyme (activity as a function of time at room temperature). Type of data set: physicochemical. Conditions: in the elution solution (SOLUTION G) at room temperature. On the procedure:
A study to verify the stability in water of the purified recombinant murine enzyme Type V 17β-hydroxysteroid dehydrogenase of the invention was carried out. […] It can be seen that the enzyme is sufficiently stable to allow industrial biocatalysis as it is still active even after 15 days (Half-life).

The nature of data set [3]: Activity test of the recombinant murine type V 17β-hydroxysteroid dehydrogenase enzyme (NADPH consumption at 340 nm). Conditions: for U/mg: each enzyme preparation; for U/mg / U/ml: preparation parameters (induction temp., time) differ per date of preparation; for U/ml: eluate of each enzyme preparation. Type of data set: biochemical. On the procedure:
To estimate the specific enzymatic activity of the purified protein, a kinetic study was carried out by means of a spectrophotometer. The conversion of 4-androstene-3,17-dione into testosterone by means of the recombinant murine type V 17β-hydroxysteroid dehydrogenase enzyme involved the equimolar consumption of the NADPH cofactor, which acted as the reducing agent.
As the transformation of the 4-androstene-3,17-dione into testosterone is equimolar to the oxidation of NADPH, by quantifying the consumption of the latter over time as a function of the enzyme milligrams used, the activity units can be estimated, which are intended as substrate micromoles converted per minute per protein milligram (U/mg).
A fresh saturated NADPH solution in phosphate buffer 100 mM at about pH 7 (SOLUTION Q) and a fresh saturated solution of 4-androstene-3,17-dione in phosphate buffer 100 mM at pH 7 (SOLUTION P) were prepared. In a quartz 100 μl cuvette, 1 cm optical path, 96 μl SOLUTION P, 4 μl phosphate buffer 100 mM at pH 7 were added. The blank was measured at 340 nm. The absorbance values at 340 nm were detected every second. In a quartz 100 μl cuvette 96 μl SOLUTION P, 2 μl SOLUTION Q and finally, 2 μl protein elution quantified by Bradford assay were inserted. The solution was blended thoroughly, then the wavelength reading was started at 340 nm and the values thereof were recorded. In a plot, the absorbance values were inserted, which were obtained as a function of time and the curve was interpolated. The highest derivate value within the early seconds of measurement was thus defined.
With the values obtained, the plot illustrated in FIG. 5 was drawn, which allows to quantify the NADPH consumption rate at time zero (except the self-oxidation given by the control, consisting of the mixture without enzyme, which must be subtracted) and from the latter the enzyme activity units per protein milligram (U/mg). To calculate the units, the following Formula was used: Unit/mg=|derivate (s^−1)|*60 (sec/min)*1 (cm)/6220 (M^−1Cm^−1)*1000000 (M/M)*[…]/[(mg/mL sol enzyme*0.002 (mL))]=(μmol/min)/mg
A study to optimize the process for the preparation of the purified recombinant murine enzyme Type V 17β-hydroxysteroid dehydrogenase was carried out. […] It can be seen that the highest activity of the enzyme is reached performing the incubation (protein expression) at a temperature lower than 30° C., particularly preferred is the range between 20° C. and 30° C. The incubation temperature is a key parameter for the preparation of the enzyme.

As usually defined, the solubility is the dissolved amount per volume that the medium holds. Higher therefore signals much dissolved substance. With `C[C@]12CCC(=O)C=C1CC[C@@H]1[C@@H]2CC[C@]2(C)C(=O)CC[C@@H]12` [4-androstene-3,17-dione], the solubility in data set [1] (in water) was about 50 µg/mL (≈ 175 µM). The “concentration of saturated solution” value in data set [1] (phosphate buffer 50 mM pH 6.5, stirred at 40° C. for 15 minutes, filtered) was 50 µg/mL.

B1: recombinant murine type V 17β-hydroxysteroid dehydrogenase enzyme: Purified recombinant murine type V 17β-hydroxysteroid dehydrogenase with N-terminal His-tag tail, SEQ ID n. 2, expressed in E. coli (protein)
chain: MGSSHHHHHHSSGLVPRGSHMDSKQQTVRLSDGHFIPILGFGTYAPQEVPKSKATEATKIAIDAGFRHIDSASMYQNEKEVGLAIRSKIADGTVKREDIFYTSKVWCTFHRPELVRVCLEQSLKQLQLDYVDLYLIHFPMAMKPGENYLPKDENGKLIYDAVDICDTWEAMEKCKDAGLAKSIGVSNFNRRQLEKILKKPGLKYKPVCNQVECHPYLNQGKLLDFCRSKDIVLVAYSALGSHREKQWVDQSSPVLLDNPVLGSMAKKYNRTPALIALRYQLQRGVVVLAKSFSEKRIKENMQVFEFQLTSEDMKVLDDLNKNIRYISGSSFKDHPDFPFWDEY
modifications: N-terminal His-tag; modified 17-beta-deidrogenase
notes: 2, expressed in E. coli
Regarding B1, the half-life entry in data set [2] is reported as “more than 15 days”. The “specific enzymatic activity (substrate micromoles converted per minute per protein milligram)” value in data set [3] (two different preparations, NADPH cofactor, phosphate buffer 100 mM pH 7) is 0.006 U/mg and 0.007 U/mg.

B2: 09/10/09: Preparation of the purified recombinant enzyme dated 09/10/09; induction 26 °C, 19 h (protein, UniProt P70694 1-323, looked up)
Estradiol 17 …: MDSKQQTVRLSDGHFIPILGFGTYAPQEVPKSKATEATKIAIDAGFRHIDSASMYQNEKEVGLAIRSKIADGTVKREDIFYTSKVWCTFHRPELVRVCLEQSLKQLQLDYVDLYLIHFPMAMKPGENYLPKDENGKLIYDAVDICDTWEAMEKCKDAGLAKSIGVSNFNRRQLEKILKKPGLKYKPVCNQVECHPYLNQGKLLDFCRSKDIVLVAYSALGSHREKQWVDQSSPVLLDNPVLGSMAKKYNRTPALIALRYQLQRGVVVLAKSFSEKRIKENMQVFEFQLTSEDMKVLDDLNKNIRYISGSSFKDHPDFPFWDEY
modifications: N-terminal His-tag
notes: Preparation of the purified recombinant enzyme dated 09/10/09; induction 26 °C, 19 h
Regarding B2, in data set [3], the U/mg turned out to be 0.0133 U/mg and the U/ml is reported as 0.65 U/ml.

B3: 25/03/09: Preparation of the purified recombinant enzyme dated 25/03/09; induction 37 °C, 15 h (protein, UniProt P70694 1-323, looked up)
Estradiol 17 …: MDSKQQTVRLSDGHFIPILGFGTYAPQEVPKSKATEATKIAIDAGFRHIDSASMYQNEKEVGLAIRSKIADGTVKREDIFYTSKVWCTFHRPELVRVCLEQSLKQLQLDYVDLYLIHFPMAMKPGENYLPKDENGKLIYDAVDICDTWEAMEKCKDAGLAKSIGVSNFNRRQLEKILKKPGLKYKPVCNQVECHPYLNQGKLLDFCRSKDIVLVAYSALGSHREKQWVDQSSPVLLDNPVLGSMAKKYNRTPALIALRYQLQRGVVVLAKSFSEKRIKENMQVFEFQLTSEDMKVLDDLNKNIRYISGSSFKDHPDFPFWDEY
modifications: N-terminal His-tag
notes: Preparation of the purified recombinant enzyme dated 25/03/09; induction 37 °C, 15 h
Turning to B3, in data set [3], the U/mg amounted to 0.0149 U/mg and the U/ml stood at 0.4955 U/ml.

B4: 26/09/08: Preparation of the purified recombinant enzyme dated 26/09/08; induction 37 °C, 18 h (protein, UniProt P70694 1-323, looked up)
Estradiol 17 …: MDSKQQTVRLSDGHFIPILGFGTYAPQEVPKSKATEATKIAIDAGFRHIDSASMYQNEKEVGLAIRSKIADGTVKREDIFYTSKVWCTFHRPELVRVCLEQSLKQLQLDYVDLYLIHFPMAMKPGENYLPKDENGKLIYDAVDICDTWEAMEKCKDAGLAKSIGVSNFNRRQLEKILKKPGLKYKPVCNQVECHPYLNQGKLLDFCRSKDIVLVAYSALGSHREKQWVDQSSPVLLDNPVLGSMAKKYNRTPALIALRYQLQRGVVVLAKSFSEKRIKENMQVFEFQLTSEDMKVLDDLNKNIRYISGSSFKDHPDFPFWDEY
modifications: N-terminal His-tag
notes: Preparation of the purified recombinant enzyme dated 26/09/08; induction 37 °C, 18 h
B4: in data set [3], the U/mg is given as 0.00725 U/mg and the U/ml was determined as 0.2247 U/ml.

B5: 22/04/09: Preparation of the purified recombinant enzyme dated 22/04/09; induction 37 °C, 21 h (protein, UniProt P70694 1-323, looked up)
Estradiol 17 …: MDSKQQTVRLSDGHFIPILGFGTYAPQEVPKSKATEATKIAIDAGFRHIDSASMYQNEKEVGLAIRSKIADGTVKREDIFYTSKVWCTFHRPELVRVCLEQSLKQLQLDYVDLYLIHFPMAMKPGENYLPKDENGKLIYDAVDICDTWEAMEKCKDAGLAKSIGVSNFNRRQLEKILKKPGLKYKPVCNQVECHPYLNQGKLLDFCRSKDIVLVAYSALGSHREKQWVDQSSPVLLDNPVLGSMAKKYNRTPALIALRYQLQRGVVVLAKSFSEKRIKENMQVFEFQLTSEDMKVLDDLNKNIRYISGSSFKDHPDFPFWDEY
modifications: N-terminal His-tag
notes: Preparation of the purified recombinant enzyme dated 22/04/09; induction 37 °C, 21 h
As for B5, in data set [3], the U/mg was found to be 0.0057 U/mg and the U/ml is reported as 0.1470 U/ml.

B6: 02/07/09: Preparation of the purified recombinant enzyme dated 02/07/09; induction 28 °C, 24 h (protein, UniProt P70694 1-323, looked up)
Estradiol 17 …: MDSKQQTVRLSDGHFIPILGFGTYAPQEVPKSKATEATKIAIDAGFRHIDSASMYQNEKEVGLAIRSKIADGTVKREDIFYTSKVWCTFHRPELVRVCLEQSLKQLQLDYVDLYLIHFPMAMKPGENYLPKDENGKLIYDAVDICDTWEAMEKCKDAGLAKSIGVSNFNRRQLEKILKKPGLKYKPVCNQVECHPYLNQGKLLDFCRSKDIVLVAYSALGSHREKQWVDQSSPVLLDNPVLGSMAKKYNRTPALIALRYQLQRGVVVLAKSFSEKRIKENMQVFEFQLTSEDMKVLDDLNKNIRYISGSSFKDHPDFPFWDEY
modifications: N-terminal His-tag
notes: Preparation of the purified recombinant enzyme dated 02/07/09; induction 28 °C, 24 h
As for B6, in data set [3], the U/mg was found to be 0.027 U/mg and the U/ml is 0.29 U/ml.

B7: 13/06/09: Preparation of the purified recombinant enzyme dated 13/06/09; induction 39 °C, 20 h (protein, UniProt P70694 1-323, looked up)
Estradiol 17 …: MDSKQQTVRLSDGHFIPILGFGTYAPQEVPKSKATEATKIAIDAGFRHIDSASMYQNEKEVGLAIRSKIADGTVKREDIFYTSKVWCTFHRPELVRVCLEQSLKQLQLDYVDLYLIHFPMAMKPGENYLPKDENGKLIYDAVDICDTWEAMEKCKDAGLAKSIGVSNFNRRQLEKILKKPGLKYKPVCNQVECHPYLNQGKLLDFCRSKDIVLVAYSALGSHREKQWVDQSSPVLLDNPVLGSMAKKYNRTPALIALRYQLQRGVVVLAKSFSEKRIKENMQVFEFQLTSEDMKVLDDLNKNIRYISGSSFKDHPDFPFWDEY
modifications: N-terminal His-tag
notes: Preparation of the purified recombinant enzyme dated 13/06/09; induction 39 °C, 20 h
Consider B7, for which, in data set [3], the U/mg is 0.00393 U/mg and the U/ml is listed as 0.0566 U/ml.
